Laboratory results from US6528275B1, “Substrates and inhibitors of proteolytic enzymes” (Peptide Therapeutics Limited, priority 1996, dated 2003).

Key:
Assay in all cases: Der pI substrate assay with FRET peptides (fluorescence, Km, kcat/Km)
Format in all cases: biochemical, house dust mite
Details in all cases: other: purified Der pI; peptides SEQ ID Nos. 1-76; pH 8.25
[1] = substrate: CC(C)CC[C@H](NC(=O)[C@H](C)NC(=O)[C@@H](NC(=O)c1ccccc1N)C(C)C)C(=O)N[C@@H](CO)C(=O)N[C@@H](Cc1ccc(O)c([N+](=O)[O-])c1)C(=O)N[C@@H](CC(=O)O)C(N)=O
Protocol: (§1) Using the general techniques described above, the following compounds were prepared and assayed as potential substrates against Der pI purified as described above.
(§2) Each mixture of 20 compounds in the libraries of the apparatus described herein was screened at a concentration of 1.0 μM per compound in an assay against the cysteinyl protease Der pI.
(§3) Plate assays were carried out in 96 well plate format, using 0.1 ug of Der pI per 100 μL assay volume in each well and using 20 μM of the substrate. All assays were performed in Assay Buffer (AB; 50 mM potassium phosphate, pH 8.25 containing 1 mM ethylenediaminetetraacetic acid (EDTA) and 1 mM dithiothreitol (DTT). The Der pI enzyme is pre-activated by addition of DTT and this in incubated at room temperature for 5 min. prior to initiation of the assay. As an example for the screening methodology, each well contains a 5 μL of a 20 μM solution of the test compound in DMSO, 10 μL of a 200 μM aqueous solution of the substrate, 2, and 85 μL of Der pI in AB is added to initiate the reaction. Enzyme activity is monitored by fluorescence using 320 nm for excitation and 420 nm for the emission wavelengths using a Labsystems Fluroskan Ascent machine. Kinetic measurements were carried out using a Hitachi F-4500 Fluorescence Spectrophotometer.

[2] = substrate: CC(C)CC[C@H](NC(=O)[C@H](C)NC(=O)[C@H](Cc1ccc(-c2ccccc2)cc1)NC(=O)c1ccccc1N)C(=O)N1C[C@H](O)C[C@H]1C(=O)N[C@@H](Cc1ccc(O)c([N+](=O)[O-])c1)C(=O)N[C@@H](CC(=O)O)C(N)=O
Protocol: as §1, §2, §3

[3] = substrate: CC(C)CC[C@H](NC(=O)[C@H](C)NC(=O)[C@H](CC1CCCCC1)NC(=O)c1ccccc1N)C(=O)N[C@@H](CO)C(=O)N[C@@H](Cc1ccc(O)c([N+](=O)[O-])c1)C(=O)N[C@@H](CC(=O)O)C(N)=O
Protocol: as §1, §2, §3

[4] = substrate: CC(C)CC[C@H](NC(=O)[C@H](C)NC(=O)[C@H](Cc1ccc(-c2ccccc2)cc1)NC(=O)c1ccccc1N)C(=O)N[C@@H](CC(C)C)C(=O)N[C@@H](Cc1ccc(O)c([N+](=O)[O-])c1)C(=O)N[C@@H](CC(=O)O)C(N)=O
Protocol: as §1, §2, §3

B1: Der pI (Dermatophagoides pteronyssinus) (protein)
chain: TNACSINGNAPAEIDLRQMRTVTPIRMQGGCGSCWAFSGVAATESAYLAYRNQSLDLAEQELVDCASQHGCHGDTIPRGIEYIQHNGVVQESYYRYVAREQSCRRPNAQRFGISNYCQIYPPNVNKIREALAQTHSAIAVIIGIKDLDAFRHYDGRTIIQRDNGYQPNYHAVNIVGYSNAQGVDYWIVRNSWDTNWGDNGYGYFAANIDLMMIEEYPYVVIL
notes: tissue SmithKline-Beecham, U.K (crude mite extract); host or cells: crude house dust mite extract
B1 showed a Km [1] of 4 µM, a Km [2] of 4 µM and a Km [3] of 9 µM. It also gave a Km [4] of 3.7 µM.
